# Test results from publication PMC7190278 (Cell, 2020).
# Residue numbers refer to the chain shown, from its start. Numbers in names are those of the source. Where no end group is shown, it is not given here. [ ]: non-standard residue; d: D form. pS = N[C@@H](COP(=O)(O)O)C(=O)O
# T1: HA-tagged human NPM2 (nucleoplasmin 2) (human, UniProt Q86SE8 1-214)
# T1 sequence (looked up): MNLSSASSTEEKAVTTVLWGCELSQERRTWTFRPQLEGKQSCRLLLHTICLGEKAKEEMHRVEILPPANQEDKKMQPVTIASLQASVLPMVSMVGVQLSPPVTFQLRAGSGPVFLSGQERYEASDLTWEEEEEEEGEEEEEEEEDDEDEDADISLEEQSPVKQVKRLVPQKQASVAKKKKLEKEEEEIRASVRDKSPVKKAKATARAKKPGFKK
# B1: Protamine 1 (P1), wild type, phosphorylated by SRPK1 (peptide, UniProt P02319 1-51, looked up)
# chain: MARYRCCR[pS]KSRSRCRRRRRRCRRRRRRCCRRRRRRCCRRRR[pS]YTIRCKKY
# modifications: cysteine pairing not given here
# B2: Protamine 1 (P1), wild type, not phosphorylated (peptide, UniProt P02319 1-51, looked up)
# chain: MARYRCCRSKSRSRCRRRRRRCRRRRRRCCRRRRRRCCRRRRSYTIRCKKY
# B3: Protamine 1 (P1) S9A S43A double mutant (peptide, UniProt P02319 1-51, looked up)
# chain: B2 chain with S9A, S43A
# B4: Protamine 1 (P1) S9A, not phosphorylated (peptide, UniProt P02319 1-51, looked up)
# chain: B2 chain with S9A
# B5: Protamine 1 (P1) S9A, phosphorylated by SRPK1 (peptide, UniProt P02319 1-51, looked up)
# chain: MARYRCCRAKSRSRCRRRRRRCRRRRRRCCRRRRRRCCRRRR[pS]YTIRCKKY
# modifications: cysteine pairing not given here
# B6: Protamine 1 (P1) S43A, phosphorylated by SRPK1 (peptide, UniProt P02319 1-51, looked up)
# chain: MARYRCCR[pS]KSRSRCRRRRRRCRRRRRRCCRRRRRRCCRRRRAYTIRCKKY
# modifications: cysteine pairing not given here
# B7: Protamine 1 (P1) S43A, not phosphorylated (peptide, UniProt P02319 1-51, looked up)
# chain: B2 chain with S43A
# Target: T1, HA-tagged human NPM2 (nucleoplasmin 2)
# Experiment: pull-down
row,binding result,Binder
1,binds,B1
2,binds,B2
3,binds,B3
4,binds,B4
5,binds,B5
6,binds,B6
7,binds,B7

# Target: HA-tagged human HIRA (human, UniProt P54198 1-1017)
# Experiment: pull-down
# HA-tagged human HIRA, sequence (P54198 whole entry): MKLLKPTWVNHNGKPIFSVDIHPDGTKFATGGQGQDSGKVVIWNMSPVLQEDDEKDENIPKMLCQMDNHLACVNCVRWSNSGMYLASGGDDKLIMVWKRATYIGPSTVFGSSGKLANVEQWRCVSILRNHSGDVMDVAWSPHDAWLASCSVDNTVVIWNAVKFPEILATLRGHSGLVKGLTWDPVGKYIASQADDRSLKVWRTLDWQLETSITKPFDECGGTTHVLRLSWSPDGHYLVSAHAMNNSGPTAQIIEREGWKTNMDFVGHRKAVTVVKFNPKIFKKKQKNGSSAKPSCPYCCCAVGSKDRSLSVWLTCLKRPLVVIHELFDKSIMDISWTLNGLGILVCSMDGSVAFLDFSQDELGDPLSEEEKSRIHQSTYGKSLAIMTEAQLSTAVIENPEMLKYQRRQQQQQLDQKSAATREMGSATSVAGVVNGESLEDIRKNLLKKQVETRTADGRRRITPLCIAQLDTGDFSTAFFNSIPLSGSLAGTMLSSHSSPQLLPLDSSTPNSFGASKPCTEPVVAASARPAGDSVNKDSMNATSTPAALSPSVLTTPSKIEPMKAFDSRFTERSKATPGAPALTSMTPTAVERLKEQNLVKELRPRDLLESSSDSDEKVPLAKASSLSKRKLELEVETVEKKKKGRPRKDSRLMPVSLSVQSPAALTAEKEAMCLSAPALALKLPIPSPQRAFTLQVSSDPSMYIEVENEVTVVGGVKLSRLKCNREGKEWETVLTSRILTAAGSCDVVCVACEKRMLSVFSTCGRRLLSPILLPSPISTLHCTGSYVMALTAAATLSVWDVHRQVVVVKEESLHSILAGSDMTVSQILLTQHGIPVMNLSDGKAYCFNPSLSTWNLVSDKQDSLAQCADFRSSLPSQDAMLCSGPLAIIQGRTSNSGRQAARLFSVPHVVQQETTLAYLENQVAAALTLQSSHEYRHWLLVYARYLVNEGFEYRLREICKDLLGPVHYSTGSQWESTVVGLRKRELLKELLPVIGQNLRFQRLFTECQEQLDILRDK
row,binding result,Binder
1,binds,B5
2,binds,B6
